Test results as given in PMC9449809 (Frontiers in Immunology, 2022).

Biological target: SARS-CoV-2 spike protein receptor-binding domain, Wuhan-Hu-1 sequence (SARS-CoV-2, UniProt P0DTC2)
Experiment: ELISA
Settings: both partners purified

B1: monoclonal antibody REGN10987 (imdevimab) (antibody, V domains shown)
VH: QVQLVESGGGVVQPGRSLRLSCAASGFTFSNYAMYWVRQAPGKGLEWVAVISYDGSNKYYADSVKGRFTISRDNSKNTLYLQMNSLRTEDTAVYYCASGSDYGDYLLVYWGQGTLVTVSS
VL: QSALTQPASVSGSPGQSITISCTGTSSDVGGYNYVSWYQQHPGKAPKLMIYDVSKRPSGVSNRFSGSKSGNTASLTISGLQSEDEADYYCNSLTSISTWVFGGGTKLTVL
  binding result: binds

B2: monoclonal antibody REGN10933 (casirivimab) (antibody, V domains shown)
VH: QVQLVESGGGLVKPGGSLRLSCAASGFTFSDYYMSWIRQAPGKGLEWVSYITYSGSTIYYADSVKGRFTISRDNAKSSLYLQMNSLRAEDTAVYYCARDRGTTMVPFDYWGQGTLVTVSS
VL: DIQMTQSPSSLSASVGDRVTITCQASQDITNYLNWYQQKPGKAPKLLIYAASNLETGVPSRFSGSGSGTDFTFTISGLQPEDIATYYCQQYDNLPLTFGGGTKVEIK
  binding result: binds
